Experimental data: patent US20240181022A1, “AMURINS LYSINS, AND LYSIN-ANTIMICROBIAL PEPTIDE (AMP) CONSTRUCTS ACTIVE AGAINST GRAM-NEGATIVE BACTERIA” (priority 2021, published 2024)
In brackets after ≈: the same amount, converted by molar mass. Like-named read-outs stand apart in the source and are kept apart here.

Legend:
S. maltophilia [1] = test: Time-kill assay in cystic fibrosis patient sputum, S. maltophilia; format: cell-based, Stenotrophomonas maltophilia
Description: (§1) Sputum from 5 cystic fibrosis patients was pooled. The resulting mixture was not filtered, as it was very dense and not amenable to sterilization by filtration. Sputum is known to be a complex mixture of DNA, carbohydrates, and lipids ([…], 2016). As used herein, the term “sputum” refers to the mucus present in the respiratory tract of an animal, such as a human. Sputum may increase in thickness due to the irritation or infection, including bacterial infection, and in some instances, may be expelled by the animal while coughing. In certain instances, cystic fibrosis may be characterized by the presence of a thick, sticky mucus or sputum present in the lungs of cystic fibrosis patients. The activity of GN370, AM1, AM2, AM3, and meropenem was determined in the sputum using a time-kill assay format as disclosed in Zhang et al., Antimicrobial peptide therapeutics for cystic fibrosis, Antimicrobial Agents Chemother. 2005; 49(7):2921-2927. […] Untreated controls were included in addition to pretreatment plating (t=0) for a baseline CFU determination. Activity was also determined in the absence of sputum for comparison to activity observed in the presence of sputum.

B. multivorans = test: MIC by broth microdilution against B. multivorans; format: cell-based, Burkholderia multivorans; details: B. multivorans isolates
Experimental: MIC values were determined using a modification of the standard broth microdilution reference method defined by the Clinical and Laboratory Standards Institute (CLSI), CLSL. 2015. Methods for Dilution Antimicrobial Susceptibility Tests for Bacteria That Grow Aerobically; Approved Standard-10th Edition. Clinical and Laboratory Standards Institute, Wayne, PA. The modification was based on the replacement of Mueller Hinton Broth with either CAA media (with and without NaCl) or CAA supplemented with 2.5% human serum. MIC is the minimum concentration of peptide sufficient to suppress at least 80% of the bacterial growth compared to control.
Based on these nine most prevalent strains, direct lytic agents, including GN370, AM1, AM2, and AM3, were evaluated against various isolates from each of the 9 strains. MICs and MBECs (Example 3) were determined, and a sputum inhibition test was conducted, as described below in Example 5.
The MICs for were determined as described below using the broth microdilution method for meropenem, GN370, AM1, AM2, and AM3. The results are shown below in Tables 8-12.

S. maltophilia [2] = details: for MIC: S. maltophilia test organism of the sputum time-kill assay
A. xylosoxidans = test: Time-kill assay in cystic fibrosis patient sputum, A. xylosoxidans; format: cell-based, Achromobacter xylosoxidans
Description: as §1

B. cenocepacia = format: cell-based, Burkholderia cenocepacia; details: B. cenocepacia (15); 2-hour treatment
Experimental: (§2) The MBEC (after 2-hour treatments) was determined as described in Jones and Wozniak, PsI Produced by Mucoid Pseudomonas aeruginosa Contributes to the Establishment of Biofilms and Immune Evasion, Am. Soc. Microbiol. 2017, 8(3):e00864-17. Meropenem and tobramycin were included as controls and were both poorly active, with MBEC90 values of >256 μg/mL (data not shown).

P. aeruginosa = test: Serial passage resistance development study, P. aeruginosa; format: cell-based, Pseudomonas aeruginosa
B. gladioli = format: cell-based, Burkholderia gladioli; details: B. gladioli (15); 2-hour treatment
Experimental: as §2

S. maltophilia [3] = test: Serial passage resistance development study, S. maltophilia; format: cell-based, Stenotrophomonas maltophilia; details: S. maltophilia, day 28, triplicate
[4] = MDR S. maltophilia isolates (n = 8)
[5] = Stenotrophomonas maltophilia, N 12 (Table 26)
[6] = carbapenem-resistant S. maltophilia isolates (n = 21)

For `C[C@@H](O)[C@H]1C(=O)N2C(C(=O)O)=C(S[C@@H]3CN[C@H](C(=O)N(C)C)C3)[C@H](C)[C@H]12` [meropenem, reference compound], the “activity in the presence and absence of sputum” value (S. maltophilia [1]) was “poorly active”, the “Log10 CFU/mL of sputum” value (S. maltophilia [1]; absence of sputum, 1 hr) was 5.04 Log10 CFU/mL of sputum and the “Log10 CFU/mL of sputum” value (S. maltophilia [1]; absence of sputum, 3 hr) was 4.7 Log10 CFU/mL of sputum. The “Log10 CFU/mL of sputum” value (S. maltophilia [1]; absence of sputum, 24 hr) was 7.95 Log10 CFU/mL of sputum, the “Log10 CFU/mL of sputum” value (S. maltophilia [1]; presence of 10% sputum, 1 hr) was 3.78 Log10 CFU/mL of sputum and the “Log10 CFU/mL of sputum” value (S. maltophilia [1]; presence of 10% sputum, 3 hr) was 4.26 Log10 CFU/mL of sputum. For the same molecule, the “Log10 CFU/mL of sputum” value (S. maltophilia [1]; presence of 10% sputum, 24 hr) was 6.3 Log10 CFU/mL of sputum, the MIC50 (B. multivorans) was 8 µg/mL (≈ 20.9 µM) and the MIC90 (B. multivorans) was 32 µg/mL (≈ 83.4 µM). The MIC50 (S. maltophilia [2]; S. maltophilia isolates) was over 32 µg/mL, the MIC90 (S. maltophilia [2]; S. maltophilia isolates) was over 32 µg/mL and the MIC (S. maltophilia [2]) was “Meropenem (MIC = 32)”. For the same molecule, the “activity in the presence and absence of sputum” value (A. xylosoxidans) was “poorly active”, the “Log10 CFU/mL of sputum” value (A. xylosoxidans; absence of sputum, 1 hr) was 4.9 Log10 CFU/mL of sputum and the “Log10 CFU/mL of sputum” value (A. xylosoxidans; absence of sputum, 3 hr) was 5.3 Log10 CFU/mL of sputum. The “Log10 CFU/mL of sputum” value (A. xylosoxidans; absence of sputum, 24 hr) was 7.3 Log10 CFU/mL of sputum, the “Log10 CFU/mL of sputum” value (A. xylosoxidans; presence of 10% sputum, 1 hr) was 4.78 Log10 CFU/mL of sputum and the “Log10 CFU/mL of sputum” value (A. xylosoxidans; presence of 10% sputum, 3 hr) was 4.3 Log10 CFU/mL of sputum. For the same molecule, the “Log10 CFU/mL of sputum” value (A. xylosoxidans; presence of 10% sputum, 24 hr) was 7.56 Log10 CFU/mL of sputum.

B1: GN370: lysin-AMP construct, SEQ ID NO: 149: MIDR, FIRL and NPTH moieties N-terminal to GN202 lysin (protein)
chain: MIDRFIRLNPTHGPRRPRRPGRRAPVRTSQRGIDLIKSFEGLRLSAYQDSVGVWTIGYGTTRGVTRYMTITVEQAERMLSNDIQRFEPELDRLAKVPLNQNQWDALMSFVYNLGAANLASSTLLDLLNKGDYQGAADQFPHWVNAGGKRLDGLVKRRAAERALFLEPLS
modifications: GN370 lysin
With B1 the MBEC50 (B. cenocepacia) was 256 µg/mL, the “effect of sputum on antibacterial activity” value (S. maltophilia [1]; 10% CF sputum vs no sputum) was “none of GN370, AM1, AM2, and AM3 was inhibited” and the “Log10 CFU/mL of sputum” value (S. maltophilia [1]; absence of sputum, 1 hr) was 2.3 Log10 CFU/mL of sputum. The “Log10 CFU/mL of sputum” value (S. maltophilia [1]; absence of sputum, 3 hr) was 2.3 Log10 CFU/mL of sputum, the “Log10 CFU/mL of sputum” value (S. maltophilia [1]; absence of sputum, 24 hr) was 2.3 Log10 CFU/mL of sputum and the “Log10 CFU/mL of sputum” value (S. maltophilia [1]; presence of 10% sputum, 1 hr) was 3.48 Log10 CFU/mL of sputum. The “Log10 CFU/mL of sputum” value (S. maltophilia [1]; presence of 10% sputum, 3 hr) was 2.3 Log10 CFU/mL of sputum, the “Log10 CFU/mL of sputum” value (S. maltophilia [1]; presence of 10% sputum, 24 hr) was 2.3 Log10 CFU/mL of sputum and the “CFU reduction by 3 hours” value (S. maltophilia [1]; time-kill) was about 2 log10. For the same molecule, the “killing by 24 hours” value (S. maltophilia [1]; time-kill) was “complete killing”, the MIC50 (B. multivorans) was 16 µg/mL and the MIC90 (B. multivorans) was over 32 µg/mL. For the same molecule, the “change in MIC over 28-day serial passage” value (P. aeruginosa; P. aeruginosa (PA453)) was “No change”, the MIC (P. aeruginosa; P. aeruginosa PA453, target organism of serial passage study) was 0.125 µg/mL and the “change in MIC over serial passage” value (P. aeruginosa; P. aeruginosa strain CFS 1292, Day 28) was “no significant changes”. The MBEC50 (B. gladioli) was 256 µg/mL, the MIC50 (S. maltophilia [2]; [4]) was 0.25 µg/mL and the MIC90 (S. maltophilia [2]; [4]) was 0.5 µg/mL. The “MIC Range” value (S. maltophilia [2]; MDR S. maltophilia isolates (n = 8), in µg/mL) was 0.0625-0.5, the MIC50 (S. maltophilia [2]; S. maltophilia isolates) was 0.5 µg/mL and the MIC90 (S. maltophilia [2]; S. maltophilia isolates) was 2 µg/mL. The “MIC Range” value (S. maltophilia [2]; S. maltophilia isolates, in µg/mL) was 0.03-2, the MIC (S. maltophilia [2]) was “GN370 (MIC = 0.5)” and the MIC50 (S. maltophilia [2]; [5]) was 2 µg/mL. For the same molecule, the MIC90 (S. maltophilia [2]; [5]) was 8 µg/mL, the “MIC Range” value (S. maltophilia [2]; [5]) was 0.25 to 8 µg/mL and the “GN370 MIC” value (S. maltophilia [2]; XDR S. maltophilia isolate AU29729) was 1 µg/mL. For the same molecule, the “GN370 MIC” value (S. maltophilia [2]; XDR S. maltophilia isolate AU29873) was 0.5 µg/mL, the “GN370 MIC” value (S. maltophilia [2]; XDR S. maltophilia isolate AU30243) was 1 µg/mL and the “GN370 MIC” value (S. maltophilia [2]; XDR S. maltophilia isolate AU30793) was 1 µg/mL. For the same molecule, the “GN370 MIC” value (S. maltophilia [2]; XDR S. maltophilia isolate AU32079) was 0.03125 µg/mL, the “GN370 MIC” value (S. maltophilia [2]; XDR S. maltophilia isolate AU33199) was 0.0625 µg/mL and the “GN370 MIC” value (S. maltophilia [2]; XDR S. maltophilia isolate AU33860) was 2 µg/mL. The “GN370 MIC” value (S. maltophilia [2]; XDR S. maltophilia isolate AU33921) was 2 µg/mL, the “GN370 MIC” value (S. maltophilia [2]; XDR S. maltophilia isolate AU34723) was 2 µg/mL and the “GN370 MIC” value (S. maltophilia [2]; XDR S. maltophilia isolate AU35419) was 2 µg/mL. The “GN370 MIC” value (S. maltophilia [2]; XDR S. maltophilia isolate AU35661) was 0.0625 µg/mL, the “GN370 MIC” value (S. maltophilia [2]; XDR S. maltophilia isolate AU36631) was 0.5 µg/mL and the “GN370 MIC” value (S. maltophilia [2]; XDR S. maltophilia isolate AU36888) was 0.25 µg/mL. For the same molecule, the “GN370 MIC” value (S. maltophilia [2]; XDR S. maltophilia isolate AU37239) was 1 µg/mL, the “GN370 MIC” value (S. maltophilia [2]; XDR S. maltophilia isolate AU37260) was 0.5 µg/mL and the “GN370 MIC” value (S. maltophilia [2]; XDR S. maltophilia isolate AU37689) was 0.25 µg/mL. The “GN370 MIC” value (S. maltophilia [2]; XDR S. maltophilia isolate AU37737) was 2 µg/mL, the MIC50 (S. maltophilia [2]; XDR isolates of S. maltophilia) was 1 µg/mL and the MIC Range (S. maltophilia [2]; XDR isolates of S. maltophilia, in µg/mL) was 0.03125-2. For the same molecule, the “activity (MIC) against S. maltophilia isolates” value (S. maltophilia [2]; all tested isolates, Tables 8-12) was “highly active”, the “GN370 MIC50” value (S. maltophilia [2]; [6]) was 0.5 µg/mL and the “GN370 MIC90” value (S. maltophilia [2]; [6]) was 2 µg/mL. The “GN370 MIC Range” value (S. maltophilia [2]; carbapenem-resistant S. maltophilia isolates (n = 21), in µg/mL) was 0.03-2, the “change in MIC over serial passage” value (S. maltophilia [3]) was “no increase in MIC” and the “effect of sputum on antibacterial activity” value (A. xylosoxidans; 10% CF sputum vs no sputum) was “none of GN370, AM1, AM2, and AM3 was inhibited”. For the same molecule, the “Log10 CFU/mL of sputum” value (A. xylosoxidans; absence of sputum, 1 hr) was 3.7 Log10 CFU/mL of sputum, the “Log10 CFU/mL of sputum” value (A. xylosoxidans; absence of sputum, 3 hr) was 3.3 Log10 CFU/mL of sputum and the “Log10 CFU/mL of sputum” value (A. xylosoxidans; absence of sputum, 24 hr) was 2.3 Log10 CFU/mL of sputum. For the same molecule, the “Log10 CFU/mL of sputum” value (A. xylosoxidans; presence of 10% sputum, 1 hr) was 3.6 Log10 CFU/mL of sputum, the “Log10 CFU/mL of sputum” value (A. xylosoxidans; presence of 10% sputum, 3 hr) was 3.3 Log10 CFU/mL of sputum and the “Log10 CFU/mL of sputum” value (A. xylosoxidans; presence of 10% sputum, 24 hr) was 2.3 Log10 CFU/mL of sputum. The “CFU reduction by 3 hours” value (A. xylosoxidans; time-kill) was about 2 log10 and the “CFU reduction by 24 hours” value (A. xylosoxidans; time-kill) was over 3 log10.
